Key:
[1] = In vivo biological activity of FGF23 (serum phosphate); set-up: species or system rat; details: Sprague-Dawley rats, single i.v. 40 μg/kg, over 4 hours
Text: We used recombinant mouse FGF23 (6His-tagged Tyr25-Val251 (Arg179Gln)), FGF2 (Ala11-Ser154), and FGF4 (Ala30-Leu202) proteins (R&D Systems). We chose the mutant form of FGF23 because it is resistant to furin protease-mediated degradation, which prolongs the protein's half-life.
We used recombinant mouse FGF23 (6His-tagged Tyr25-Val251 [Arg179Gln]; 26.1 kDa), and FGF2 (Ala11-Ser154; 16.2 kDa) (R&D Systems) as before (Faul et al., 2011).

C57BL/6 mice [2] = assay: Intra-myocardial injection of FGF23 in mice; type: in vivo, mouse; details: 7.5 ng FGF23 intra-myocardial
Description: Twelve-week old adult C57BL/6 mice (Jackson Laboratories) underwent cardiac surgery using a standard operative procedure that has been described previously for intra-myocardial implantation of stem cells (Amado et al., Proc. Natl. Acad. Sci. U.S.A., 102(32):11474-11479, 2005). All procedures were performed by a single investigator who was blinded to the specific treatment group. All protocols and experimental procedures were approved by the Institutional Animal Care and Use Committee at the University of Miami Miller School of Medicine. Briefly, mice were anesthetized with isoflurane and an incision was made between the 3rd and 4th rib to reveal a cardiac window. Three injections of purified recombinant murine FGF23 in PBS or PBS alone were delivered into the free wall of the left ventricle via a 30-gauge needle attached to a standing Hamilton syringe. At each of the three sites, 10 μl were injected for a total of 30 μl containing a total of 7.5 ng FGF23. Cardiac function was evaluated by Vevo 770 imaging system (Visual Sonics, Toronto, Canada) at baseline and 2 weeks after surgery. Long and short axis 2D parasternal views and short axis M mode views were recorded under general anesthesia with isoflurane inhalation delivered through a nose mask. The heart rate was maintained above 400 bpm with controlled body temperature set to 37° C. At 7- and 14-days post-injection, animals were sacrificed, hearts were isolated, perfused ex-vivo (6 ml of 10% Formalin with 4 ml of 20 mM KCl), stored overnight in 10% formalin for fixation, and then serially sectioned (7 μm slices) and stained with hematoxylin and eosin. Age-matched untreated animals were sacrificed at 14 weeks of life. […]
(§1) Short-axis cardiac sections were used to quantify myocardial thickness by measuring the distance from the inner to the outer myocardial zone at the mid-chamber zone. […] Since klothro-ablated kl/kl mice display severe growth retardation with small hearts (Kuro-o et al., Nature, 390(6655):45-51, 1997), we also measured relative wall thickness calculated as two times the anterior wall thickness divided by left ventricular internal diameter. Total RNA was isolated from flash frozen hearts using TRIzol (Invitrogen) and RT-PCR analyses were performed as described above.
(§2) We measured cross-sectional surface area of cardiac myocytes in paraffin-embedded short-axis sections of the heart. Briefly, 7 μm thick sections were deparaffinized according to our established protocols. To specifically label cardiac myocytes, we used mouse monoclonal MF20 antibody against sarcomeric myosin at 1:200 and Cy5-conjugated donkey-anti mouse (Invitrogen) as secondary antibody at 1:400. To visualize nuclei, fixed tissue was incubated with 4′,6-diamidino-2-phenylindole (DAPI; 400 ng/ml in PBS) for 5 minutes. To visualize cellular borders, fixed tissue was incubated with wheat germ agglutinin (WGA) conjugated to Alexa Fluor 555 (Invitrogen) at 1 mg/ml in PBS containing 10 mM sodium azide. Immunofluorescence images were taken on a Leica TCS-SP5 confocal microscope with a 63× oil objective. Leica AF6000 fluorescence software was used to quantify cross-sectional cell surface area of 25 cells per field at four fields along the mid-chamber free wall based on WGA-positive staining.
Blood was collected at sacrifice via cardiac puncture and was centrifuged at 4° C. and 14,000 rpm for 15 minutes. Plasma supernatants were collected, stored at −80° C., and subsequently analyzed in batches for FGF23 (C-terminal mouse assay, Immutopics), PTH (1-84 assay, Alpco Immunoassays), and phosphate, calcium, BUN and creatinine (Ortho Vitros 250 Chemistry Analyzer).

C57BL/6 mice [3] = assay: Intravenous injection of FGFs (with or without Fc-FGFR decoy receptors) in mice; type: in vivo, mouse; details: FGF23 40 μg/kg i.v. twice daily 5 days
Description: Twelve-week old adult C57BL/6 mice underwent tail vein injections using standard protocols as previously described for the systemic delivery of plasmid DNA (Faul et al., 2008). Briefly, mice were placed in a restrainer and 40 μg/kg of FGF23 dissolved in 200 μl of PBS were injected into the tail vein of 5 mice twice daily with eight hours in between injections for 5 consecutive days. Four mice underwent the same injection schedule using 200 μl of PBS alone as negative control. On the morning of the 6th day, 16 hours after the final tail vein injections, animals were sacrificed and the hearts were isolated and prepared using the same protocol as described above.
as §1, §2
Next, we wanted to determine the effectiveness of this FGFR trapping system on FGF-induced LVH in mice. To our knowledge, Fc decoy receptors have not yet been used to study FGFR function in vivo in any biological context, but served as valuable tools to analyze the functions of other receptor tyrosine kinases, like receptors for vascular endothelial growth factor (VEGFR) and their role in tumor growth and metastasis. We used similar Fc-FGFR concentrations as described for Fc-VEGFR in animal models of cancer (Lin J et al., Cancer Res. 2005; 65(15):6901-9).

B1: FGF23: recombinant mouse FGF23, 6His-tagged Tyr25-Val251 (Arg179Gln) (R&D Systems) (protein)
chain: YPDTSPLLGSNWGSLTHLYTATARTSYHLQIHRDGHVDGTPHQTIYSALMITSEDAGSVVITGAMTRRFLCMDLHGNIFGSLHFSPENCKFRQWTLENGYDVYLSQKHHYLVSLGRAKRIFQPGTNPPPFSQFLARRNEVPLLHFYTVRPRRHTQSAEDPPERDPLNVLKPRPRATPVPVSCSRELPSAEEGGPAASDPLGVLRRGRGDARGGAGGADRCRPFPRFV
modifications: left off: small tags and cut ends
In the case of B1, the serum phosphate levels [1] is reported as “significantly decreased”, the “cross-sectional surface area of cardiac myocytes (WGA)” value (C57BL/6 mice [2]) is reported as “significant increase” and the “expression of β-MHC, ANP and BNP” value (C57BL/6 mice [2]) is reported as “increase”. The “α-MHC and MCAD mRNA levels” value (C57BL/6 mice [2]) was “decrease”, the “thickness of the left ventricular free wall” value (C57BL/6 mice [2]; day 7, vs vehicle) was “significant increase” and the “left ventricular internal diameter in diastole” value (C57BL/6 mice [2]; day 14) was “significantly decreased”. The relative wall thickness (C57BL/6 mice [2]; day 14) was “increased”, the “thickness of the left ventricular free wall” value (C57BL/6 mice [2]; day 14) was “increased further” and the “ratio of heart weight to tibial length” value (C57BL/6 mice [2]; day 14, vs vehicle) was “significantly increased”. For the same molecule, the “thickness of the interventricular septum” value (C57BL/6 mice [2]; day 14, vs vehicle) was “increased significantly”, the “levels of FGF23, phosphate, calcium, PTH, BUN, or creatinine vs vehicle” value (C57BL/6 mice [2]; days 7 and 14) was “no significant differences” and the ejection fraction (C57BL/6 mice [2]; echocardiography over time) was “no change”. For the same molecule, the cardiac weight/tibial length (C57BL/6 mice [3]; vs vehicle) was “significantly increased”, the “cross-sectional surface area of individual cardiac myocytes” value (C57BL/6 mice [3]; vs vehicle) was “increased” and the “expression of α-MHC and MCAD mRNA levels” value (C57BL/6 mice [3]; vs vehicle) was “decreased expression”. The “expression of β-MHC, ANP and BNP” value (C57BL/6 mice [3]; vs vehicle) was “increased expression”, the “left ventricular wall thickness” value (C57BL/6 mice [3]; vs vehicle) was “increased” and the “FGF23 levels at the time of sacrifice” value (C57BL/6 mice [3]; 16 hours after final injection, vs PBS) was “significantly increased”.

Source: patent US20160039936A1, “FIBROBLAST GROWTH FACTOR RECEPTOR INHIBITION FOR THE TREATMENT OF DISEASE” (UNIVERSITY OF MIAMI, priority 2011, published 2016)
